Test results: patent US20200263187A1, “A METHOD FOR EXPRESSION OF A PROKARYOTIC MEMBRANE PROTEIN IN AN EUKARYOTIC ORGANISM, PRODUCTS AND USES THEREOF” (Universidade Do Minho, priority 2017, published 2020)
Like-named read-outs stand apart in the source and are kept apart here.

Legend:
[1] = system: hxt null mutant EBY.4000 strain; conditions: HXT1 expressed in EBY.4000, Özcan and Johnston 1999, cited from earlier work
[2] = system: S. cerevisiae W303-1A jen1Δ ady2Δ cells; format: cell-based; conditions: for Kd (diffusion component) for lactate, non-mediated transport: cells grown in YNB lactic acid
Method: FIG. 4. Initial uptake rates of the radiolabelled 14C -Lactic acid at different concentrations. S. cerevisaie W303-1A jen1 Δady2Δ cells containing the plasmid pNJ-LctP-CJ-GFP and pNJ-LIdp-CJ-GFP were grown in YNB Lactic acid medium at pH 5.5 and 30° C., until mid-exponential growth phase.
In an embodiment, to confirm the successful heterologous expression of transporters in this system several studies were carried out as described in (Soares-Silva, et al. 2015): radiolabelled lactate uptake assays, growth assays in solid minimal medium with carboxylates or sugars as sole carbon source and fluorescence microscopy to detect the location of GFP fusion proteins.
The growth of the S. cerevisiae ady2Δjen1Δ strain expressing the NJ-LldP-CJ-GFP protein and control strains were evaluated in YNB media (supplemented according to the required auxotrophies) containing lactic acid (0.5%) pH 5.5 at 18° C. The S. cerevisiae ady2Δjen1Δ strains expressing the native LIdP (pLIdP), the empty vector (p416GPD) and the ScJen1p (pDS1) were used as controls.
As a control the IctP gene was cloned in the p416GPD vector. For this construct the IctP gene was amplified from S. aureus genomic DNA using the primers LcFWD and LcREV (Table 1) and inserted and ligated in the p416GPD vector using the restriction enzymes BamHI and EcoRI. […] The growth of S. cerevisiae strains was tested in YNB media (supplemented according to the required auxotrophies) containing lactic acid 0.5% (pH 5.5).

[3] = system: S. cerevisiae W303-1A lactic acid-grown cells; conditions: cited from earlier work

B1: HXT1: S. cerevisiae low affinity glucose transporter, positive control (protein, UniProt P32465 1-570, looked up)
Low-affinity glucose …: MNSTPDLISPQKSNSSNSYELESGRSKAMNTPEGKNESFHDNLSESQVQPAVAPPNTGKGVYVTVSICCVMVAFGGFIFGWDTGTISGFVAQTDFLRRFGMKHHDGSHYLSKVRTGLIVSIFNIGCAIGGIVLAKLGDMYGRRIGLIVVVVIYTIGIIIQIASINKWYQYFIGRIISGLGVGGITVLSPMLISEVAPSEMRGTLVSCYQVMITLGIFLGYCTNFGTKNYSNSVQWRVPLGLCFAWALFMIGGMMFVPESPRYLVEAGRIDEARASLAKVNKCPPDHPYIQYELETIEASVEEMRAAGTASWGELFTGKPAMFQRTMMGIMIQSLQQLTGDNYFFYYGTIVFQAVGLSDSFETSIVFGVVNFFSTCCSLYTVDRFGRRNCLMWGAVGMVCCYVVYASVGVTRLWPNGQDQPSSKGAGNCMIVFACFYIFCFATTWAPIAYVVISECFPLRVKSKCMSIASAANWIWGFLISFFTPFITGAINFYYGYVFMGCMVFAYFYVFFFVPETKGLSLEEVNDMYAEGVLPWKSASWVPVSKRGADYNADDLMHDDQPFYKSLFSRK
- Glucose concentration at which growth is restored [1]: above 1%
- Km ([1]; read-out: Km of low-affinity glucose transport): 100000 µM

B2: pLIdP: Native E. coli LldP lactate permease cloned in p416GPD, control without eukaryotic termini (protein, UniProt P33231 1-551, looked up)
L-lactate permease: MNLWQQNYDPAGNIWLSSLIASLPILFFFFALIKLKLKGYVAASWTVAIALAVALLFYKMPVANALASVVYGFFYGLWPIAWIIIAAVFVYKISVKTGQFDIIRSSILSITPDQRLQMLIVGFCFGAFLEGAAGFGAPVAITAALLVGLGFKPLYAAGLCLIVNTAPVAFGAMGIPILVAGQVTGIDSFEIGQMVGRQLPFMTIIVLFWIMAIMDGWRGIKETWPAVVVAGGSFAIAQYLSSNFIGPELPDIISSLVSLLCLTLFLKRWQPVRVFRFGDLGASQVDMTLAHTGYTAGQVLRAWTPFLFLTATVTLWSIPPFKALFASGGALYEWVINIPVPYLDKLVARMPPVVSEATAYAAVFKFDWFSATGTAILFAALLSIVWLKMKPSDAISTFGSTLKELALPIYSIGMVLAFAFISNYSGLSSTLALALAHTGHAFTFFSPFLGWLGVFLTGSDTSSNALFAALQATAAQQIGVSDLLLVAANTTGGVTGKMISPQSIAIACAAVGLVGKESDLFRFTVKHSLIFTCIVGVITTLQAYVLTWMIP
- Kd (diffusion component) for lactate, non-mediated transport ([2]; 14C-lactic acid uptake): 47 ± 2.5 µM
- Kd (diffusion component) for lactate, non-mediated transport ([2]; 14C-lactic acid uptake, listed as Lldp): 43 ± 2 µM
- Transport mechanism for labelled lactic acid ([2]; lactic acid uptake, pH 5.0): non-mediated transport mechanism

B3: ScJen1: S. cerevisiae lactate transporter Jen1, positive control (protein, UniProt P36035 2-616, looked up)
Carboxylic acid transporter …: SSSITDEKISGEQQQPAGRKLYYNTSTFAEPPLVDGEGNPINYEPEVYNPDHEKLYHNPSLPAQSIQDTRDDELLERVYSQDQGVEYEEDEEDKPNLSAASIKSYALTRFTSLLHIHEFSWENVNPIPELRKMTWQNWNYFFMGYFAWLSAAWAFFCVSVSVAPLAELYDRPTKDITWGLGLVLFVRSAGAVIFGLWTDKSSRKWPYITCLFLFVIAQLCTPWCDTYEKFLGVRWITGIAMGGIYGCASATAIEDAPVKARSFLSGLFFSAYAMGFIFAIIFYRAFGYFRDDGWKILFWFSIFLPILLIFWRLLWPETKYFTKVLKARKLILSDAVKANGGEPLPKANFKQKMVSMKRTVQKYWLLFAYLVVLLVGPNYLTHASQDLLPTMLRAQLGLSKDAVTVIVVVTNIGAICGGMIFGQFMEVTGRRLGLLIACTMGGCFTYPAFMLRSEKAILGAGFMLYFCVFGVWGILPIHLAELAPADARALVAGLSYQLGNLASAAASTIETQLADRYPLERDASGAVIKEDYAKVMAILTGSVFIFTFACVFVGHEKFHRDLSSPVMKKYINQVEEYEADGLSISDIVEQKTECASVKMIDSNVSKTYEEHIETV
modifications: GFP fusion
notes: S. cerevisiae lactate transporter Jen1, positive control
- Vmax for lactic acid uptake ([2]; 14C-lactic acid uptake, pH 5.0, cells grown in YNB lactic acid pH 5.5, 30° C., mid-exponential phase): 0.23±0.01 nmol s-1 mg-1 dry wt
- Km ([2]; 14C-lactic acid uptake, pH 5.0, cells grown in YNB lactic acid pH 5.5, 30° C., mid-exponential phase, read-out: Km for lactic acid uptake): 270 ± 40 µM
- Vmax for lactic acid uptake (unit not given) ([2]; positive control in FIG. 4 legend, 14C-lactic acid): 0.23
- Km ([2]; positive control in FIG. 4 legend, 14C-lactic acid, read-out: Km value for lactic acid uptake (unit inferred)): 270 µM
- Km ([3]; Casal 1999, Paiva 2013, read-out: Km for lactate uptake): 290 µM
- Vmax for lactate uptake ([3]; Casal 1999, Paiva 2013): 0.40 nmol of lactic acid s1 mg of dry weight1
